According to US20240092889A1 (Chugai, published 2024):
Numbering of substitutions follows the chain as printed. Names may count otherwise.

T1: recombinant human C1r2s2 tetramer (human, UniProt P09871 16-688; P00736 18-705)
T1 construct: C1s and C1r co-expressed in HEK293/FreeStyle 293-F and purified from conditioned medium
T1 chain 1: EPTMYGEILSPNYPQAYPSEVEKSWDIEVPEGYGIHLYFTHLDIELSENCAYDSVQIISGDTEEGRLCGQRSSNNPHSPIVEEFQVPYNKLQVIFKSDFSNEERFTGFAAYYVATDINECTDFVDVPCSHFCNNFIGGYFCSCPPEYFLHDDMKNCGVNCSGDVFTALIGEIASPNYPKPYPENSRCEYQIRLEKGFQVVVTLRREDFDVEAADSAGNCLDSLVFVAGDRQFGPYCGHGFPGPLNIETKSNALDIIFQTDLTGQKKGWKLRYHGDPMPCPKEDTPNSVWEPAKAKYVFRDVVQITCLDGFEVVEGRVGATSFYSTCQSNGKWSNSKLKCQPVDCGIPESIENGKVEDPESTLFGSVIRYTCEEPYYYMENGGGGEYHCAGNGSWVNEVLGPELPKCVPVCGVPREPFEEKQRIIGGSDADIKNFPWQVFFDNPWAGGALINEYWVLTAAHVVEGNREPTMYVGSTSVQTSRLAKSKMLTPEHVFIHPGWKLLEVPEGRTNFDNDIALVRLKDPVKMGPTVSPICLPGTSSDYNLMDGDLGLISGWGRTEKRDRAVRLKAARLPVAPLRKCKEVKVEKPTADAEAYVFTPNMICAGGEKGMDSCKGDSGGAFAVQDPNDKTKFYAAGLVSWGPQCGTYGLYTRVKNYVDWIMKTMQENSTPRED
T1 chain 2: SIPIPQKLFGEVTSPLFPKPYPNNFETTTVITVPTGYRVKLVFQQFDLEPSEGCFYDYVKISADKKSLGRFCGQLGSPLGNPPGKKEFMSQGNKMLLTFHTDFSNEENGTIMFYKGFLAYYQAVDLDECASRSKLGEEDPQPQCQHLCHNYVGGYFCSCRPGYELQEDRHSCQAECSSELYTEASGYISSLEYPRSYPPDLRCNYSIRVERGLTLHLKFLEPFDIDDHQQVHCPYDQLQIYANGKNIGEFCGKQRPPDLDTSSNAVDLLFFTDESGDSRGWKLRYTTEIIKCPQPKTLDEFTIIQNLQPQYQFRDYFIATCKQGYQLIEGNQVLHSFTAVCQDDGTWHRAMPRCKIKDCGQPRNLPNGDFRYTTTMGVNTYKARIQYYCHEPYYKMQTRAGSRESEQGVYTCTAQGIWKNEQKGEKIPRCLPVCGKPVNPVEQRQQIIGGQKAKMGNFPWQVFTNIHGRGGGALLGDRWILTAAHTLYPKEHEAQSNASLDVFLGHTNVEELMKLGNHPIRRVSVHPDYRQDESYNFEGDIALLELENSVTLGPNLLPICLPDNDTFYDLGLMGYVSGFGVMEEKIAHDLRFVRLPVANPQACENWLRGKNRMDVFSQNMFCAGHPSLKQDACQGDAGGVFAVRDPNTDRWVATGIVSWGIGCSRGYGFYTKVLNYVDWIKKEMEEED

B1: AL0552 (antibody, human IgG1, kappa, V domains shown)
VH: QVQLVESGGGVVQPGRSLRLSCAASGFTFSAYAMNWIRQPPGKGLEWIGLIYGSGSTFYASWAKGRVTISVDTSKNQFSLKLSSVTAADTAVYYCARGRSVNYNSDFHLWGQGTLVTVSS
VL: DIQMTQSPSSLSASVGDRVTITCQASQSLHDKKNLAWYQQKPGQPPKLLIYGASTLESGVPSRFSGSGSGTDFTLTISSLQPEDFATYYCQGEFSCSSADNNTFGQGTKVEIKR
notes: COS0637temp with VL C95dN (Kabat), already in the VL entry
B2: AL0560 (antibody, human IgG1, kappa, V domains shown)
VH: B1 VH
VL: B1 VL with N101Y
notes: COS0637temp with VL C95dY (Kabat), already in the VL entry
B3: AL0736 (antibody, human IgG1, kappa, V domains shown)
VH: B1 VH
VL: B1 VL with C96R, N101L
notes: COS0637temp with VL C94R/C95dL (Kabat), already in the VL entry
B4: AL0742 (antibody, human IgG1, kappa, V domains shown)
VH: B1 VH
VL: B1 VL with C96W, N101R
notes: COS0637temp with VL C94W/C95dR (Kabat), already in the VL entry
B5: AL0738 (antibody, human IgG1, kappa, V domains shown)
VH: B1 VH
VL: B1 VL with C96L, N101L
notes: COS0637temp with VL C94L/C95dL (Kabat), already in the VL entry
B6: AL0555 (antibody, human IgG1, kappa, V domains shown)
VH: B1 VH
VL: B1 VL with N101R
notes: COS0637temp with VL C95dR (Kabat), already in the VL entry
B7: AL0559 (antibody, human IgG1, kappa, V domains shown)
VH: B1 VH
VL: B1 VL with N101W
notes: COS0637temp with VL C95dW (Kabat), already in the VL entry
B8: AL0745 (antibody, human IgG1, kappa, V domains shown)
VH: B1 VH
VL: B1 VL with C96E, N101L
notes: COS0637temp with VL C94E/C95dL (Kabat), already in the VL entry
B9: AL0741 (antibody, human IgG1, kappa, V domains shown)
VH: B1 VH
VL: B1 VL with C96W, N101Q
notes: COS0637temp with VL C94W/C95dQ (Kabat), already in the VL entry
B10: AL0553 (antibody, human IgG1, kappa, V domains shown)
VH: B1 VH
VL: B1 VL with N101P
notes: COS0637temp with VL C95dP (Kabat), already in the VL entry
B11: AL0557 (antibody, human IgG1, kappa, V domains shown)
VH: B1 VH
VL: B1 VL with N101T
notes: COS0637temp with VL C95dT (Kabat), already in the VL entry
B12: AL0556 (antibody, human IgG1, kappa, V domains shown)
VH: B1 VH
VL: B1 VL with N101S
notes: COS0637temp with VL C95dS (Kabat), already in the VL entry
B13: AL0558 (antibody, human IgG1, kappa, V domains shown)
VH: B1 VH
VL: B1 VL with N101V
notes: COS0637temp with VL C95dV (Kabat), already in the VL entry
B14: AL0554 (antibody, human IgG1, kappa, V domains shown)
VH: B1 VH
VL: B1 VL with N101Q
notes: COS0637temp with VL C95dQ (Kabat), already in the VL entry
B15: AL0739 (antibody, human IgG1, kappa, V domains shown)
VH: B1 VH
VL: B1 VL with C96V, N101L
notes: COS0637temp with VL C94V/C95dL (Kabat), already in the VL entry

Biological target: T1, recombinant human C1r2s2 tetramer
Assay: SPR (BIACORE), antibody captured by ProL, human C1r2s2 injected at 100 nM, pH 7.4, 37 C
Protocol: Analysis of interaction between antibody variants and the human C1r2s2 prepared as mentioned above was carried out at pH7.4, at 37 degrees C. using BIACORE® T200 instrument (GE Healthcare) or BIACORE® 4000 (GE Healthcare). ProL (BioVision) was immobilized onto a CM4 sensorchip using amine coupling kit (GE Healthcare) according to the recommended settings by GE Healthcare. Antibodies and analytes were diluted into the respective running buffers, ACES pH7.4 (20 mM ACES (N-(2-Acetamido)-2-aminoethanesulfonic acid), 150 mM NaCl, 1.2 mM CaCl2, 1 mg/ml bovine serum albumin (BSA), 1 mg/ml CMD (CM-Dextran sodium salt), 0.05% Tween® 20 (polysorbate 20), 0.005 w/v % NaN3). Each antibody was captured onto the sensor surface by ProL. Antibody capture levels were aimed at 200 resonance units (RU). Then, recombinant human C1r2s2 was injected at concentrations of 25 and 100 nM followed by dissociation at pH7.4. The surface was regenerated using 10 mM Glycine-HCl, pH1.5.

Binding result, no binding (tested: 100 nM):
B1
B2
B3
B4
B5
B6
B7
B8
B9
B10
B11
B12
B13
B14
B15
